Results from patent US20210346432A1.

Tests used:
ET140-p25 (human) = target: T1, ET140-p25 (human); assay: peptide ELISA on streptavidin plate, antibody 1 ug/mL
T1 sequence (peptide, N-terminal biotin): SGSGLRCSSNTPPLTCQRY

ET140-p26 (human) = target: T2, ET140-p26 (human); assay: as above
T2 sequence (peptide, N-terminal biotin): SGSGRCSSNTPPLTCQRYC

B1: ET140-153 mIgG1 (antibody, V domains shown)
VH: QVQLVQSGAEVKKPGSSVKVSCKASGGTFSSYAISWVRQAPGQGLEWMGRIIPILGIANYAQKFQGRVTITADKSTSTAYMELSSLRSEDTAVYYCARGGYYSHDMWSEDWGQGTLVTVSS
VL: LPVLTQPPSASGTPGQRVTISCSGRSSNIGSNSVNWYRQLPGAAPKLLIYSNNQRPPGVPVRFSGSKSGTSASLAISGLQSEDEATYYCATWDDNLNVHYVFGTGTKVTVLG
Q: What does the source list for B1?
A: A450 (ET140-p25 (human)): 0.583; A450 (ET140-p26 (human)): 0.225
